Measured values reported in a protein production outcome set (Wang et al. 2014).

experiment: label from the status in PepcDB records
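Note: failed if final PepcDB status was selected cloned or expressed and not failed if soluble or beyond.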

Sequence	protein production
MNIAANPHVQADQTVYLKDYQKPSFLVESINLDIQVYDDHTVVESTLVMNRQTAGDLVLLGRDLELKSIVLNGKNLEVGQYQLDHEQLVITHAPDQVILNTQVVIHPESNTQLEGLYKAGGDLFVTQNEPEGFRKITFYPDRPDVLAEFTTRVEADKKFPVLLANGNLLETGTVGENRHFAIWQDPTKKPSYLFACVIGDLAVLKDHYTTSEGREVALEIYAIEKDIPKCHIAMEALKHSMRWDEEHYGRPYDLDNYMIVAVSQFNMGAMENKGLNIFNTSCVLADEEYTTDAAIMRVQSVIAHEYFHNWTGNRITCRDWFQLCLKEGLTVFRDQSFSEDLQSAAVQRIDDVAVLKAHQFPEDAGPLSHPPRPDHFVEINNFYTATVYEKGAEINRMMSTLLGKEKFRQGTDEYFHRYDGQAVTVEDWVNALSAGSGVDLSNFLTWYNQPGTPKLEAKGEYDEQNHVYRLSFKQSLKVHPKYPNLKAVPVPVALALFNAETGEQYTLHCQDLFVNEVQDGVYLFDQDTATIEFSNVTQKPVVSLLRNFSAPVNLDFDYSDDELAFLIEYETNGFNQWQASQTLLERILLKDHAVEPYIKAIKNTLPDLVKKDPLLASRLFDVPTEGYLGSRIDHDYKPEAIQEKRNSVLETLARELGAFWKETYLSLDPSLQNDFSQAMGERALKNIMLSMMARQGDDSVFDLAYTQYSQTKNMSERLGALRVLVWNDAPQAQNALDDFYRRYKDEALSLDQWFMVQAANPNATAETIKALTEHPDYDLGTPNRVRSVSGGLSNNPVNAWSFGVEHYIGLAEYFDEKNPILGSRLLQVLSRWYTLAEPQRGNVQNALKDLQPHVKSKNVKETLNSILSV	failed
MNIDEIERKIDEAIEKEDYETLLSLLNKRKELMEGLPKDKLSEILEKDRKRLEIIEKRKTALFQEINVIREARSSLQK	not failed
MNIDLTPYYAEPGEQPFSARRMAMPWRNHVPLSPEQIPAGWQTLKQQSVPARKRLLYLHIPFCATHCTFCGFYQNKLRDDSTATYTRYLLQELAMEADSPLHQSAPIHAVYFGGGTPTALAADELSQIIRAIRTSLPLAPDCEITVEGRAMDFDDERIDACLDAGANRFSIGIQTFDTRIRQRMARTSDKQQSIRFLERLCGRDRAAVVCDLMFGLPGQTPEIWREDLAIVSDLPLDGVDLYALNLLPTTPLAKAAENQRVALPDVVARRDFYRTGAAFLADSGWHQLSNSHWARTTRERNLYNLLIKQGADCLAMGSGAGGNINGQAYMMERSLERYYQQIDQGQKPIMMMTPASSTGPWQHQLQAGIEVGRIKLPQLTQHARELQPLLSQWHQAGLTCDDSTCLRLTNDGRFWANNLMQALQQIIPQLNAEEHAHLEHHHHHH	not failed
MNIEKTRFCINRKIAPGLSIEAFFRLVKRLEFNKVELRNDMPSGSVTDDLNYNQVRNLAEKYGLEIVTINAVYPFNQLTEEVVKKTEGLLRDAQGVGARALVLCPLNDGTIVPPEVTVEAIKRLSDLFARYDIQGLVEPLGFRVSSLRSAVWAQQLIREAGSPFKVLLDTFHHHLYEEAEKEFASRIDISAIGLVHLSGVEDTRPTEALADEQRIMLSEKDVMQNYQQVQRLENMGYRGIYAFEPFSSQLASWSEAEIEEQINRSVSLLLQ	not failed
MNIIIATTKSWNIKNAQKFKKENESKYNTTIITNKDELTFEKVKLINPEYILFPHWSWIIPKEIFENFTCVVFHMTDLPFGRGGSPLQNLIERGIKKTKISAIKVDGGIDTGDIFFKRDLDLYGTAEEIFMRASKIIFNDMIPELLTKRPVPQKQEGEATVFQRRKPEQSEISPDFDLEKIYDYIRMLDGEGYPRAFIKYGKYRLEFSRASMKNGKIIADVEIIEGDENE	not failed
MNIITTDPLFGFVLTVLVFMIGVRINENFRKPWTNPLLFATVVIILILSLAHIPYKNYYIGGSIINDLIGPSTVALGIPLYKTFHLMKHHARSIVSSIAIAALVNCIFTALCAKFFSLSKLASLSIFPKSVTTAMAMGISDKMHGVEQITVVVVVATGILTSVLGGPLLKLFRITDPVAQGIALGGTGHAVGTGTAIELGKTQGAMAALSIGVTGIMYVIFAPIIAKIILGY	failed
MNIKVTVFHYILDRSYIFLLFIIFISLIFPIISAFISLIFVGLLFQGLYLRRQSSTNSPYIVLEILSMLSLIYAAQFFTHLLKATDIVFLSYLIIISLSLYRLKRIIKKKTNYLQNSKVAFTLLLLAFLLNWFISGFLDLTQGNFSVFGQFGYFSYPFLAIMNFISAFASITASPWFMIDMGIWLGVIGIFRIIEYNKLENKIRYLLMMFAYAFYSIYLPSFSPLQSEVQYIPYMWFNGLGTYGPVRSSYLLDGIIGTFTVTAILSFMFGSRQICSVTCTAPYMLQNTFLNSMKKYNRSSKVGRKTLTSRMSSWYKWVMSITWISLIILAVLSFLKFSILGNDPTMFYTSLYFNVIWYFQFMLMPFLGNYACVNSGICAWGSFNQLFGYLGFFKLKVRDLKQCLNCKTVDCANACPVGLTDMRAWFIKKGEFKSFKCVGVGDCVEVCPYNNITFYDVRSWIKEKLYPIQFKHRGTT	failed
MNILLAFKAEPDAGMLAEKEWQAAQGNSGPDVSLLRSLLGADEQAAAALLLAQRKNGTSMSLTALSMGDERALHWLRYLMALGFEDAVLLETAADLRFAPEFVARHIAEWQYQNPLELIITGCQSSEGQNGQTPFLLAEMLGWPCFTQVERFTLDAPFITLEQRTENGLRCCRVRLPAVIAVRQCGEVALPVPGMRQRMAAGKAEIIRKTVAAEMPAMQCLQLARAEQRRGATLIDGQTVAEKAQKLWQYYLCQRMQ	failed
MNILNNKNKRTSIFKALALCLFAAVSFTFVSCDDDMDIQQSYPFTVETMPVPNKVTKGQTVEIRCELKKTGDFANTLYTIRYFQFEGEGTLKMDNGITFLPNDRYLLENEKFRLYYTAQGDEAHNFIVVVEDNFGNSYELEFDFNNRNVKDDGVITVVPIGNFKPLTR	failed
MNILYNERIDGVLPAVDKQQLLDELRRQLPDLDVLHRTEELRPYECDGLSAYRTTPMLVVLPRHLEEVQTLLRLCHAHRVPVVARGAGTGLSGGALPLEKGVLLVMARFNQILAIDPAARVARVQPGVRNLAISQAAAPHGLYYAPDPSSQIACSIGGNVAENAGGVHCLKYGLTVHNLLKVEILTVEGEAMTLGSDTLDSPGFDLLALFTGSEGMLGIITEVTVKLLPRPQVAKVLLAAFDSVEKAGRAVADIIAAGIIPGGLEMMDNLAIRAAEDFIHAGYPVDAEAILLCELDGVEADVHADCERVREVLTQAGATEVRQAIDEAERVRFWAGRKNAFPAVGRLSPDYYCMDGTIPRRALPGVLRGISELSGQYGLRVANVFHAGDGNMHPLILFDANQPGELQRAEALGGKILELCVEVGGSITGEHGVGREKINQMCAQFNSDELTFFHAIKAAFDASGMLNPGKNIPTLQRCAEFGAMHIHAGQLPFPELERF	failed
MNINGIKLLSSRAVSKLGDVFYDYGNSTWIASMGGLGQKILGIYQIVELLVSIVLNPFGGALADRFQRRKILLITDAICAIMCFLLSFIGDDKVMVYGLIVANAILAVSNAFSSPAYKSYIPEIVDKADIITYNANLETIVQIISVSSPVLGFLIFNNFGIRITLIVDAITFLISFLFLYAIKVERVQLSKQEKVAIKNILADIADGFTYIKKEKEIMFFLIIAALLNTFLAMFNYLLPFTNSLLKTSGAYATILSISAIGSIIGALIARKIKSSINSMLSMLVFSSLGVIVMGFPSLFELPIWIPYSGSFLFNSLLTMFNIHFFSQVQIRVDEAYMGRVMSTIFTIAIMFMPIGTLFMTIFSFALSNVSFIVIGCAIAILGGLGFSYSKKQF	failed
MNINVAELLNGNYILLLFVVLALGLCLGKLRLGSIQLGNSIGVLVVSLLLGQQHFSINTDALNLGFMLFIFCVGVEAGPNFFSIFFRDGKNYLMLALVMVGSALVIALGLGKLFGWDIGLTAGMLAGSMTSTPVLVGAGDTLRHSGMESRQLSLALDNLSLGYALTYLIGLVSLIVGARYLPKLQHQDLQTSAQQIARERGLDTDANRKVYLPVIRAYRVGPELVAWTDGKNLRELGIYRQTGCYIERIRRNGILANPDGDAVLQMGDEIALVGYPDAHARLDPSFRNGKEVFDRDLLDMRIVTEEVVVKNHNAVGKRLAQLKLTDHGCFLNRVIRSQIEMPIDDNVVLNKGDVLQVSGDARRVKTIADRIGFISIHSQVTDLLAFCAFFVIGLMIGMITFQFSTFSFGMGNAAGLLFAGIMLGFMRANHPTFGYIPQGALSMVKEFGLMVFMAGVGLSAGSGINNGLGAIGGQMLIAGLIVSLVPVVICFLFGAYVLRMNRALLFGAMMGARTCAPAMEIISDTARSNIPALGYAGTYAIANVLLTLAGTIIVMVWPGLG	failed
MNIQIILSLIFSMILMACTTSSPQKDLSRICDSSGCSDRSGNYVSNHSSAASSDEEARIRVLEDVARQDPRAAYDLGLRYFRGDGVRQDSYQALQWMREAAERGDLNAQKALGRLYLTGLEEMGADYREAEKWLRIAASRGDKESEQLLVEAAAFASEERRSGEIYHRWVNRWQPVFYQRWYYGYPYLGTWRGNYWYY	failed
MNIRHIRNATAVIEYGGKRILIDPMLSDKGSFDPFPNSPRQDQKNPLVELPMAIEDIINDIDLVILTHLHIDHFDPKAIEVLPKDIKIYAQNEEDASEVERYGFTNVSVFNDVTHIGEIELIKTDAQHGHGEILKMTGHVHGMILKHSEEPTLYLAADTVWFEGVEKALKTYQPDVVVLNGGANQFFEGGPLVMDEHDVLKVANTLPLAQIVVVHMEAVNHWHLSRKELNEFINSNDLGNRVVVPNDGELLTFEK	failed
MNIRRARPDDLMNMQHCNLLCLPENYQMKYYFYHGLSWPQLSYIAEDEDGKIVGYVLAKMEEDPDDVPHGHITSLAVKRSHRRLGLAQKLMDQASRAMIENFSAKYVSLHVRKSNRAALHLYSNTLNFQVSEVEPKYYADGEDAYAMKRDLSQMADELRRQLVLKKGRYVVLGSKENQGSTLPGSEEASQQENLAGGDSGSDGKDSTDVQDSLQTLGSAS	failed
MNITLGYIDPVAFSLGPIQVRWYGIIIACGILLGYFIAQAALKQVGLHKDTLIDIIFYSAIVGFIVARIYFVTFQWPYYMNHLSEIPKIWHGGIAIHGGLIGGLISGIIVCKIKNLHPFQIGDIVAPSIILAQGIGRWGNFMNHEAHGGPVSRAFLEHLHLPDFIIRNMYIEGQYYHPTFLYESIWDVIGFVILITLRKRLKLGETFFGYLIWYSVGRFFVEAMRTDSLMLTSHIRVAQLVSVVLILISVIFVIYRRVKYQPIKYENSGPLTWPIKKAK	failed
MNITLLKSKIHRASVTEARLDYIGSISIDEKLLQASGILEYEKVQVVNVNNGARFETYTIATQEEGVVCLNGAAARLAEVGDKVIIMSYADFNEEEAKTFKPKVVFVDENNTATKITNYEKHGAIF	not failed
MNITVNDRECSAQVGDRLLDIARANHSHIGYFCGGNAICQTCYVRVLEGAELLSPMSDAEKAMLSDKLIKEGTRMACQTLIEKPGKITVLSEVEAAKRLTLENPLQLPAYMGKMGWEAAVKFTDTIAFQARREQGEHALEPTQLLHDVAAAISDAIQLVFNAVQAAFGVNRSTDKPEIKADKGCGCDTTLLAKTATCDNGHGRIVSPEVLQLHQERSAVCN	failed
MNIVENEICIRTLIDDDFPLMLKWLTDERVLEFYGGRDKKYTLESLKKHYTEPWEDEVFRVIIEYNNVPIGYGQIYKMYDELYTDYHYPKTDEIVYGMDQFIGEPNYWSKGIGTRYIKLIFEFLKKERNANAVILDPHKNNPRAIRAYQKSGFRIIEDLPEHELHEGKKEDCYLMEYRYDDNATNVKAMKYLIEHYFDNFKVDSIEIIGSGYDSVAYLVNNEYIFKTKFSTNKKKGYAKEKAIYNFLNTNLETNVKIPNIEYSYISDELSILGYKEIKGTFLTPEIYSTMSEEEQNLLKRDIASFLRQMHGLDYTDISECTIDNKQNVLEEYILLRETIYNDLTDIEKDYIESFMERLNATTVFEGKKCLCHNDFSCNHLLLDGNNRLTGIIDFGDSGIIDEYCDFIYLLEDSEEEIGTNFGEDILRMYGNIDIEKAKEYQDIVEEYYPIETIVYGIKNIKQEFIENGRKEIYKRTYKD	failed
